# Assay results published in US20200116725.
# Legend:
# [1] = test system: P120 thrombin-cleavable peptide, Biotin-GGGSGGGSGGfPRSGGGGGC
# [2] = test system: P213 MMP9-cleavable peptide, Biotin-GGGPLGVRGKGGC
# [3] = test system: P220 MMP9-cleavable peptide, Biotin-GGGGGGGGGGPLGVRGKGGC
# [4] = test system: P113 thrombin-cleavable peptide, Biotin-SGGfPRSGGSGGC
# P120 thrombin-cleavable peptide, Biotin-GGGSGGGSGGfPRSGGGGGC, sequence (chain, as listed by the source): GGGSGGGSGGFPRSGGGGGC
# MMP9 (Active, Human, Recombinant, PF140, Merck Millipore), sequence (chain, as listed by the source): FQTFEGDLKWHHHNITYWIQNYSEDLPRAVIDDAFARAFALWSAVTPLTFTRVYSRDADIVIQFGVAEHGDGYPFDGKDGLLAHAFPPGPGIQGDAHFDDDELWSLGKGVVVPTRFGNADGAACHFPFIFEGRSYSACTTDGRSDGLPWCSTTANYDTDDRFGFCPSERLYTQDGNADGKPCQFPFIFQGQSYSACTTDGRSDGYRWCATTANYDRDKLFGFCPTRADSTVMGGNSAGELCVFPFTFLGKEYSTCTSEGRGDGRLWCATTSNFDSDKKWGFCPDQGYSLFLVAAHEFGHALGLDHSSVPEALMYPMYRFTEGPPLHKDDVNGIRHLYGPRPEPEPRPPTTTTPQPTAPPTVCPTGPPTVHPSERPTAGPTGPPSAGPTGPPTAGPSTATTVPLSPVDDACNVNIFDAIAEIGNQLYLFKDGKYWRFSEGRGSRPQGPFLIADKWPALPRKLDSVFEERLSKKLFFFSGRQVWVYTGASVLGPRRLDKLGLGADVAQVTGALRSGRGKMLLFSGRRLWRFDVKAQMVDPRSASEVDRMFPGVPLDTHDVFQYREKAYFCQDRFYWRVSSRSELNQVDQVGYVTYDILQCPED
Substance,"% Cleavage (free AuNC fraction: 7-12 mL), gel filtration chromatography with catalytic activity readout; AuNC-P120-NAv + MMP9 (12 h) [1]","fraction of AuNCs cleaved from AuNC-P213-NAv within 1 h, FCS, 50 nM MMP9 [2]","rate of cleavage by FCS (linear region, 50 nM MMP9), AuNC-P213-NAv complex [2]","% Cleavage (free AuNC fraction: 7-12 mL), gel filtration chromatography with catalytic activity readout; AuNC-P220-NAv + MMP7/9/13 (12 h) [3]","% Cleavage (free AuNC fraction: 7-12 mL), gel filtration chromatography with catalytic activity readout; AuNC-P220-NAv + MMP9 (12 h) [3]","fraction of AuNCs cleaved from AuNC-P220-NAv within 1 h, FCS, 50 nM MMP9 [3]","rate of cleavage by FCS (linear region, 50 nM MMP9), AuNC-P220-NAv complex [3]","% Cleavage (free AuNC fraction: 7-12 mL), gel filtration chromatography with catalytic activity readout; AuNC-P113-NAv + THR (12 h) [4]","% Cleavage (free AuNC fraction: 7-12 mL), gel filtration chromatography with catalytic activity readout; AuNC-1:5-P120-NAv + THR (1 h), ca. 20 biotin ligands per AuNC [1]","% Cleavage (free AuNC fraction: 7-12 mL), gel filtration chromatography with catalytic activity readout; AuNC-1:20-P120-NAv + THR (1 h), ca. 5 biotin ligands per AuNC [1]","% Cleavage (free AuNC fraction: 7-12 mL), gel filtration chromatography with catalytic activity readout; AuNC-P120-NAv + THR (12 h) [1]","% Cleavage (free AuNC fraction: 7-12 mL), gel filtration chromatography with catalytic activity readout; AuNC-P220-NAv + THR (12 h) [3]"
"MMP9 (Active, Human, Recombinant, PF140, Merck Millipore)",7.1%,only 20% AuNCs are cleaved from the AuNC-P213-NAv complex,only 0.08% AuNC cleaved per minute,MMP9: 54.9%,75.1%,80% AuNCs are cleaved within the first hour of incubation with MMP9,3% AuNC cleaved per minute,,,,,
"MMP13 (Active, Human, Recombinant, 444287)",,,,MMP13: 29.8%,,,,,,,,
"thrombin from human plasma (T7009, Sigma)",,,,,,,,21.8%,49.6%,89.9%,90.2%,5.5%
